From article PMC8093215 (2021)

Tests used:
hDNMT1 BAH1 domain Y775A = hDNMT1 BAH1 domain Y775A (human, UniProt P26358 728-900, Y775A); test: ITC
hDNMT1 BAH1 domain D768A = hDNMT1 BAH1 domain D768A (human, UniProt P26358 728-900, D768A); test: ITC
Sequence of hDNMT1 BAH1 domain D768A (P26358 728-900 D768A): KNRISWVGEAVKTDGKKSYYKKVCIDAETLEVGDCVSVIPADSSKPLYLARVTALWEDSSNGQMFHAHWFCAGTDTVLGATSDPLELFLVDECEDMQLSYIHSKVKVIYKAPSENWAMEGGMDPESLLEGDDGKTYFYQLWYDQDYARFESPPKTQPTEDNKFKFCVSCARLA

Sequence of hDNMT1 BAH1 domain Y775A (P26358 728-900 Y775A): as the sequence (P26358 728-900 D768A) above, with A41D, Y48A counted along it

Kd (hDNMT1 BAH1 domain Y775A): 361 µM
Kd (hDNMT1 BAH1 domain D768A): 10 µM
Binder: GAKRHRKVLRDNY (trimethyl-lysine at K20) [H4(14–25)K20me3 peptide]
